This experiment has as its target Pseudomonas aeruginosa QatC with C-terminal 6xHis tag (Pseudomonas aeruginosa). Nature of the experiment: mass photometry; Refeyn TwoMP; purified protein diluted to 200 nM in gel filtration buffer (20 mM HEPES-KOH pH 7.5, 250 mM KCl, 1 mM TCEP), 1 uL mixed into a 16 uL drop; QatA in the absence of DNA. (In general: Size exclusion chromatography separates by hydrodynamic size, large species first.)

A word on the stoichiometry N: it is a count of units in the complex or per binding partner. “Pseudomonas aeruginosa QatB (natural protein)” had a stoichiometry N of 1.

These data come from paper PMC13279940.
